Earlier results in publication PMC3971948.

Target: Asp85 (UniProt position 98, WAQYADWLFTT)
Conditions: Initial unphotolysed BR state of the R82Q mutant

**Q.** For “Bacteriorhodopsin R82Q (Halobacterium salinarum; R82Q)”, which pKa is on record?
**A.** up to ∼7
